These results are taken from patent US12416034B2, “Recombinant production of steviol glycosides” (EVOLVA SA, priority 2011, dated 2025).

A short description of series [1]: RebD solubility in water. It counts as physicochemical. The conditions noted are these: 30° C. The method, then:
The solubility of RebD was assessed by making several different solutions of RebD in water were made and incubated at 30° C. for 72 hours. […] One with skill in the art will recognize that the solubility can be influenced by any number of conditions such as pH, temperature, or different matrices.

Series [2] in a line: Denaturation temperature by differential scanning calorimetry (DSC). As to conditions: 6HIS-purified enzymes, 91D2e-b GST-purified. It counts as physicochemical. The protocol: To assess the thermal stability of EUGT11 and to compare it with the other UGTs in the steviol glycosylation pathway, denaturation temperatures of the proteins were determined using differential scanning calorimetry (DSC). Use of DSC thermograms to estimate denaturation temperatures, TD, is described, for example, by E. Freire in Methods in Molecular Biology 1995, Vol. 40 191-218. DSC was performed (using 6HIS-purified EUGT11, yielding an apparent TD of 39° C.; while when GST-purified 91D2e-b was used, the measured TD was 79° C. For reference, the measured TD when using 6HIS-purified UGT74G1, UGT76G1 and UGT85C2 was 86° C. in all cases. One of skill in the art will recognize that enzyme immobilization or addition of thermal protectants can be added to the reactions to improve stability of the protein. Non-limiting examples of thermal protectants include trehalose, glycerol, ammonium sulphate, betaine, trimethylamine oxide, and proteins.
In general terms: In DSC, transitions show as peaks or steps in heat flow.

The nature of series [3]: Codon optimized UGT cell lysate assay, steviol as substrate. It counts as biochemical. As to conditions: 0.25 mM steviol, 24 hours, 30° C. The method, then:
The wild-type, DNA 2.0, and GeneArt sequences were assayed for in vitro activity to compare reactivity on substrates in the steviol glycosides pathway. UGTs were inserted in high copy (2p) vectors and expressed from a strong constitutive promoter (GPD1) (vectors P423-GPD, P424-GPD, P425-GPD, and P426-GPD). The plasmids were transformed individually into the universal Watchmaker strain, EFSC301 (described in Example 3 of WO2011/153378) and assays were carried out using cell lysates prepared from equal amount of cells (8 OD units). For the enzymatic reactions, 6 μL of each cell lysate were incubated in a 30 μL reaction with 0.25 mM steviol (final concentration) to test UGT74G1 and UGT85C2 clones, and with 0.25 mM 13-SMG (13SMG) (final concentration) to test 76G1 and 91D2e UGTs. Assays were carried out for 24 hours at 30° C. Prior to LC-MS analysis, one volume of 100% DMSO was added to each reaction, samples were centrifuged at 16000 g, and the supernatants analysed.

The nature of series [4]: Screening by LC-MS of E. coli lysates, rubusoside as substrate. It counts as biochemical. The method, then:
(§1) To analyze the approximately 1600 mutant clones of UGT91D2e, the E. coli transformants were grown overnight at 30° C. in 1 ml of NZCYM containing ampicillin (100 mg/1) and chloramphenicol (33 mg/1), in 96-well format. The next day, 150 μl of each culture was inoculated into 3 ml NZCYM containing ampicillin (100 mg/1), chloramphenicol (33 mg/1), arabinose 3 mM, IPTG 0.1 mM and ethanol 2% v/v, in 24-well format, and incubated at 20° C. and 200 rpm for ˜20 h. The following day, cells were spun down and pellets were resuspended in 100 μl of lysis buffer containing 10 mM Tris-HCl pH 8, 5 mM MgCl2, 1 mM CaCl2) and complete mini protease inhibitor EDTA-free (3 tablets/100 ml) (Hoffmann-La Roche, Basel, Switzerland) and frozen −80° C. for at least 15 minutes to promote cell lysis. […] In each case, the resulting compounds, stevioside or rebaudioside D (rebD), were measured by LC-MS. Results were analyzed in comparison with the stevioside or rebD produced by the lysates expressing the corresponding controls (91D2e, 91D2e-b, EUGT11 and the empty plasmid). […]
(§2) Half of the 1600 clones and the corresponding controls were assayed for their capacity to glycosylate rubusoside and rebaudiosideA. Stevioside and RebD were quantified by LC-MS. […]

Series [5] in a line: Screening by LC-MS of E. coli lysates, rebaudioside A as substrate. It counts as biochemical. The conditions noted are these: RebA substrate. The method, then:
as §1, §2

A short description of series [6]: Enzyme kinetics with RebA as substrate. It counts as biochemical. The conditions noted are these: Reb A. The protocol:
(§3) A series of experiments were performed to determine kinetic parameters of EUGT11 and 91D2e-b. For both enzymes, 100 μM RebA, 300 μM UDP-glucose, and 10 U/mL Alkaline Phosphatase (Fermentas/Thermo Fisher, Waltham, MA) were used in the reactions. For EUGT11, the reactions were performed at 37° C. using 100 mM Tris-HCl, pH 7, and 2% enzyme. For 91D2e-b, the reactions were performed at 30° C. using 20 mM Hepes-NaOH, pH 7.6, 20% (by volume) enzyme. The initial velocities (V0) were calculated in the linear range of a product versus time plot.
To first investigate the linearity intervals, initial time-courses were done for each enzyme. EUGT11 was assayed at 37° C. for 48 h at initial concentrations of 100 μM RebA and 300 μM UDP-glucose. UGT91D2e-b was assayed at 37° C. for 24 h at initial concentrations of 200 μM RebA and 600 μM UDP-glucose. Based on these range-finding studies, it was determined that the initial 10 minutes in the case of EUGT11, and the initial 20 minutes in UGT91D2e-b would be in the linear range with respect to product formation, and therefore initial velocities of each reaction were calculated in those intervals. In the case of EUGT11, RebA concentrations assayed were 30 μM, 50 μM, 100 μM, 200 μM, 300 μM and 500 μM. Concentration of UDP-glucose was always three times the concentration of RebA and incubation was performed at 37° C. By plotting the calculated V0 as a function of the substrate concentrations, Michaelis-Menten curves were generated. By plotting the reciprocal of V0 and the reciprocal of [S], a Lineweaver-Burk graphic was obtained, with y=339.85x+1.8644; R^2=0.9759.
(§4) Vmax and KM parameters were determined from the curve-fit Lineweaver-Burk data, calculated from the x- and y intercepts (x=0, y=1/Vmax) and (y=0, x=−1/KM). Additionally, the same parameters also were calculated by a non-linear least squares regression, using the SOLVER function in Excel. The results obtained with both methods for EUGT11 and RebA are presented in Table 12, along with all the kinetic parameters of this example. Kcat is calculated based on Vmax divided by the approximate amount of protein in the assay.
(§5) In the case of UGT91D2e-b, RebA concentrations assayed were 50 μM, 100 μM, 200 μM, 300 μM, 400 μM and 500 μM. Concentration of UDP-glucose was always three times the concentration of RebA and incubation was performed at 30° C., in the reaction conditions described above for UGT91D2e-b. Additionally, kinetic parameters of UGT91D2e-b towards UDP-glucose were determined. UGT91D2e-b was incubated with increasing amounts of UDP-glucose (30 μM, 50 μM, 100 μM, and 200 μM), maintaining an excess of RebA (1500 μM). incubation was performed at 30° C., in optimal conditions for UGT91D2e-b.

Series [7] in a line: Enzyme kinetics with UDP-glucose as substrate. It counts as biochemical. The protocol: as §3, §4
In order to investigate the influence of UDP-glucose concentration in the glycosylation reaction, as well as the affinity of EUGT11 for UDP-glucose, similar kinetics analysis were performed. EUGT11 was incubated with increasing amounts of UDP-glucose (20 μM, 50 μM, 100 μM, and 200 μM), maintaining an excess of RebA (500 μM).
as §5

As for `C=C1C[C@@]23CC[C@H]4[C@@](C)(CCC[C@@]4(C)C(=O)O[C@@H]4O[C@H](CO)[C@@H](O)[C@H](O)[C@H]4O[C@@H]4O[C@H](CO)[C@@H](O)[C@H](O)[C@H]4O)[C@@H]2CC[C@]1(O[C@@H]1O[C@H](CO)[C@@H](O)[C@H](O[C@@H]2O[C@H](CO)[C@@H](O)[C@H](O)[C@H]2O)[C@H]1O[C@@H]1O[C@H](CO)[C@@H](O)[C@H](O)[C@H]1O)C3` [RebD, Rebaudioside D], the “concentration soluble in water initially” value in series [1] (72 hours) was at most 1000 µM. For the same molecule, the “concentration stable for longer periods of time” value in series [1] (water) was at most 500 µM.

B1: UGT74G1: S. rebaudiana UGT, SEQ ID NO:1 (protein, listed as Stevia rebaudiana)
chain: MAEQQKIKKSPHVLLIPFPLQGHINPFIQFGKRLISKGVKTTLVTTIHTLNSTLNHSNTTTTSIEIQAISDGCDEGGFMSAGESYLETFKQVGSKSLADLIKKLQSEGTTIDAIIYDSMTEWVLDVAIEFGIDGGSFFTQACVVNSLYYHVHKGLISLPLGETVSVPGFPVLQRWETPLILQNHEQIQSPWSQMLFGQFANIDQARWVFTNSFYKLEEEVIEWTRKIWNLKVIGPTLPSMYLDKRLDDDKDNGFNLYKANHHECMNWLDDKPKESVVYVAFGSLVKHGPEQVEEITRALIDSDVNFLWVIKHKEEGKLPENLSEVIKTGKGLIVAWCKQLDVLAHESVGCFVTHCGFNSTLEAISLGVPVVAMPQFSDQTTNAKLLDEILGVGVRVKADENGIVRRGNLASCIKMIMEEERGVIIRKNAVKWKDLAKVAVHEGGSSDNDIVEFVSELIKA
With B1, in series [2], the “denaturation temperature TD” value is 86 °C. Further, the “activity of GeneArt lysate as a percentage of the wild-type enzyme” value in series [3] was “equivalent activity”.

B2: 91D2e-b: UGT91D2e double mutant C631A/T857C, amino acid modifications L211M and V286A (protein, listed as Stevia rebaudiana)
chain: MATSDSIVDDRKQLHVATFPWLAFGHILPYLQLSKLIAEKGHKVSFLSTTRNIQRLSSHISPLINVVQLTLPRVQELPEDAEATTDVHPEDIPYLKKASDGLQPEVTRFLEQHSPDWIIYDYTHYWLPSIAASLGISRAHFSVTTPWAIAYMGPSADAMINGSDGRTTVEDLTTPPKWFPFPTKVCWRKHDLARLVPYKAPGISDGYRMGMVLKGSDCLLSKCYHEFGTQWLPLLETLHQVPVVPVGLLPPEIPGDEKDETWVSIKKWLDGKQKGSVVYVALGSEALVSQTEVVELALGLELSGLPFVWAYRKPKGPAKSDSVELPDGFVERTRDRGLVWTSWAPQLRILSHESVCGFLTHCGSGSIVEGLMFGHPLIMLPIFGDQPLNARLLEDKQVGIEIPRNEEDGCLTKESVARSLRSVVVEKEGEIYKANARELSKIYNDTKVEKEYVSQFVDYLEKNARAVAIDHES
For the molecule B2, the “stevioside formed by lysates” value in series [4] is over 10 µM. For the same molecule, the “RebD formed by lysates” value in series [5] is over 1.5 µM. The “denaturation temperature TD” value in series [2] is 79 °C. The Kcat was 0.00683 s⁻¹ in series [6] (Lineweaver-Burk plot), 0.00533 s⁻¹ in series [6] (Nonlinear Least Square Fit), 0.00317 s⁻¹ in series [7] (Lineweaver-Burk plot) and 0.0033 s⁻¹ in series [7] (Nonlinear Least Square Fit). Besides, the Km – broadly, the substrate concentration at which the rate is half of its maximum – was 1580 µM in series [6] (Lineweaver-Burk plot), 1150 µM in series [6] (Nonlinear Least Square Fit), 41.9 µM in series [7] (Lineweaver-Burk plot) and 45.1 µM in series [7] (Nonlinear Least Square Fit). The maximal velocity (Vmax) (as a rule, the rate approached at saturating substrate) was 0.44 µM/min in series [6] (Lineweaver-Burk plot), 0.34 µM/min in series [6] (Nonlinear Least Square Fit), 0.18 µM/min in series [7] (Lineweaver-Burk plot) and 0.19 µM/min in series [7] (Nonlinear Least Square Fit).
